# Measured values reported in PMC5274527.
# How the values were obtained:
# [1] = biological target: human red cone opsin fused at its C-terminus to eGFP or mCherry (human) (UniProt P04000); assay: fluorescence correlation spectroscopy
# [2] = biological target: human red cone opsin fused at its C-terminus to eGFP or mCherry (human) (UniProt P04000); assay: FRET or BRET
# [3] = biological target: human red cone opsin fused at its C-terminus to eGFP or mCherry (human) (UniProt P04000); assay: pulsed-interleaved excitation fluorescence cross-correlation spectroscopy
# [4] = biological target: human red cone opsin with C-terminal 1D4 tag (pcDNA3.1(+), without eGFP) (human) (UniProt P04000); assay: cross-linking
average molecular brightness [1],stoichiometry N [1],FRET efficiency (average) [2],FRET efficiency (highest single-cell value) [2],median fc (relative cross-correlation) [3],percent DSG dimers (of monomer plus dimer bands) [4],Substance
738 cpsm,2,3.6%,12%,0.19,,human red cone opsin fused at its C-terminus to eGFP or mCherry (from UniProt P04000 1-352) (receptor)
,,,,,79%,"human red cone opsin with C-terminal 1D4 tag (pcDNA3.1(+), without eGFP) (from UniProt P04000 1-352) (receptor)"
